According to patent publication US20200206371A1 (WAYNE STATE UNIVERSITY, published 2020):

T1: murine IFN-γ (recombinant IFN-γ) (mouse, UniProt P01580 23-155)
T1 construct: AN-18 is described as a rat mAb to murine IFN-γ; also called rIFN-γ; interferon gamma
T1 sequence (looked up): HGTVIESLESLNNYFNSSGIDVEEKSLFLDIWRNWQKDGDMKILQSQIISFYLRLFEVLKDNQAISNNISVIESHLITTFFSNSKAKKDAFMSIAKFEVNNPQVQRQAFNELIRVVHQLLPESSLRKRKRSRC

B1: AN-18 (anti-IFNγ, rat IgG1, kappa, eBioscience), full-length (antibody, V domains shown)
VH: QVQLKESGPGLVQPSQTLSLTCTVSGFSLDSYNVHWVRQPPGKGLEWMGRMKYNGDTSYNSALKSRLRISRDTSKNQVFLKMNSLQTDDTGTYYCTRDWHYGYPSPYFEFWGQGVMVTVSS
VL: DVQMTQSPSYLAASPGESVSISCKASKNINTYLAWYQEKPGKTNKLLIYSGSTLQSGTPSRFSGSGSGTDFTLTIRSLEPEDFAVYYCQQHNEYPLTFGSGTKLEVKR
notes: Bought rat IgG1, kappa monoclonal antibody; also called full-length AN18; anti-mouse IFN-γ mAb clone AN-18

What was measured:
[1] = target: T1, murine IFN-γ (recombinant IFN-γ); assay: Octet (BLI); format not stated; diabody (scFv homodimer), not full-length antibody
[2] = target: T1, murine IFN-γ (recombinant IFN-γ); assay: Octet (BLI); format not stated; full-length AN18, not diabody

Molecule | Kd [1] [nM] | Kd [2] [nM]
anti-IFN-γ diabody (homodimer of the single chain Fv derived from anti-IFNγ clone AN18, made in CHO cells) | 37.9 | –
B1 | – | 28.2
